Patent US6005086, “Farnesoid activated receptor polypeptides, and nucleic acid encoding the same” (The Salk Institute for Biological Studies)

Columns and labels:
FAR-RXRalpha heterodimer [1] = molecular target: T1, FAR-RXRalpha heterodimer (Rattus norvegicus (FAR) / Homo sapiens …, UniProt Q62735;P19793 Q62735:1-469,P19793:1-462); assay: EMSA; mutated element not recognized; details: tags: rabbit reticulocyte lysate TNT, Promega; label: 32P (Klenow)
Description: (§1) It was next sought to determine the DNA binding properties of the FAR-RXRα complex. Because FAR and EcR share 100% sequence identity in the DNA recognition helix (P-box, Cys^141-Lys^145), it was examined whether the FAR-RXRα complex could recognize the hsp27 […] (EcRE; Yao et al., *Cell* 71:63–72 (1992)). Electrophoretic mobility shift analysis was performed using [^32P]-labeled DNA and in vitro translated FAR and RXRα. Proteins used in electrophoretic mobility shift assays were prepared by translation in a rabbit reticulocyte lysate system (TNT, Promega). Proteins (1 µl) were incubated for 20 minutes at room temperature with 100,000 cpm of Klenow-labeled probes in 10 mM Tris pH 8, 100 mM KCl, 6% glycerol, 0.05% NP-40, 1 mM DTT, 100 ng/µl poly dI dC and then electrophoresed through a 5% polyacrylamide gel in 0.5×TBE. The gel was autoradiographed for 1.5 hours with an intensifying screen.

FAR-RXRalpha heterodimer [2] = molecular target: T1, FAR-RXRalpha heterodimer; assay: EMSA; cooperative binding; details: tags: rabbit reticulocyte lysate TNT, Promega; label: 32P (Klenow)
Description: as §1

FAR-RXRalpha heterodimer [3] = molecular target: T1, FAR-RXRalpha heterodimer; assay: EMSA; half-site substitutions abolish binding; details: tags: rabbit reticulocyte lysate TNT, Promega; label: 32P (Klenow)
Description: as §1

RXRalpha = RXRalpha (UniProt P19793 P19793:1-462); assay: EMSA; RXRalpha alone, no high affinity binding; details: tags: rabbit reticulocyte lysate TNT, Promega; GenBank X52773 cited for human RXRalpha; label: 32P (Klenow)
Sequence of RXRalpha (P19793 whole entry, one chain of several): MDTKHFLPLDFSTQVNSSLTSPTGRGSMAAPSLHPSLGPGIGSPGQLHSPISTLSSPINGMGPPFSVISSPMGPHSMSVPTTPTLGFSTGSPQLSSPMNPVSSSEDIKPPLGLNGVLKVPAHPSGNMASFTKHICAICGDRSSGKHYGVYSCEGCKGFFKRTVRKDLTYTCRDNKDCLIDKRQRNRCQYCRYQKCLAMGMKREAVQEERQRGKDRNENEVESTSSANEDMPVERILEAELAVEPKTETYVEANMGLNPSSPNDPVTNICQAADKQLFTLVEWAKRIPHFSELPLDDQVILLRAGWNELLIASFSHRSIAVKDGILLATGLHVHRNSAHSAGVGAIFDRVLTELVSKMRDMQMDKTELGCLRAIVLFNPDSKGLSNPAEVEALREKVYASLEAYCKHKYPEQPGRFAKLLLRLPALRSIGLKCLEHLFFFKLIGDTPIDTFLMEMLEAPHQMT
Description: as §1

FAR-RXRalpha heterodimer [4] = molecular target: T1, FAR-RXRalpha heterodimer; assay: cell_activity; 50 uM JH III; 76-fold with 100 nM LG69, 212-fold with both; parental MTV reporter lacking EcREs not activated by JH III; details: tags: CMV expression vectors in CV-1 cells
Description: Thus, with reference to FIG. 5A, CV-1 cells were transiently transfected with hsp27-EcRE×5 MTV-luciferase alone (−) or with expression vectors for rat FAR and/or human RXRα. Reporter activity was assayed after treating cells with or without 50 µM JH III.

T1 sequence (Q62735 whole entry, chain 1 of 2): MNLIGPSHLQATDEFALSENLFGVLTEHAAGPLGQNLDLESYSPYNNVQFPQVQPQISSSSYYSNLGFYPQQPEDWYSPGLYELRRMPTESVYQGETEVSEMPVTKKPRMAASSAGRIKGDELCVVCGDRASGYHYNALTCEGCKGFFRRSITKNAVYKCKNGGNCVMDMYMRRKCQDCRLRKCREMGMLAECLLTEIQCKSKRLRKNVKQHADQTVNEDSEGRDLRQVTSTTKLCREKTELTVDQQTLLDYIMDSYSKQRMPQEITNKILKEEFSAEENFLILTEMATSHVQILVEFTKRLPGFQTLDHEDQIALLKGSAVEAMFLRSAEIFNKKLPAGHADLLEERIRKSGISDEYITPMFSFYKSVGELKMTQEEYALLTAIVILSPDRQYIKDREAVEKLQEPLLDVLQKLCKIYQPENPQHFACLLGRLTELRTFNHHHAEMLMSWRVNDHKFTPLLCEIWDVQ
T1 sequence (P19793 whole entry, chain 2 of 2): as the sequence (P19793 whole entry, one chain of several) above

B1: EcREm (mutated hsp27-EcRE) (dsDNA)
DNA 1: CGTTCAATGCACA
DNA 2: TGTGCATTGAACG
- binding result (FAR-RXRalpha heterodimer [1]): no binding

B2: idealized IR1 (dsDNA)
DNA 1: AGGTCAATGACCT
DNA 2: AGGTCATTGACCT
- binding result (FAR-RXRalpha heterodimer [2]): binds

B3: IR1m (dsDNA)
DNA 1: AGAACAATGTTCT
DNA 2: AGAACATTGTTCT
- binding result (FAR-RXRalpha heterodimer [3]): no binding

B4: hsp27-EcRE (dsDNA)
DNA 1: GGTTCAATGCACT
DNA 2: AGTGCATTGAACC
- binding result (RXRalpha): no binding

B5: hsp27-EcRE x5 MTV-luciferase reporter (dsDNA)
DNA 1: GGTTCAATGCACT
DNA 2: AGTGCATTGAACC
- activity (FAR-RXRalpha heterodimer [4]): 17 fold activation
